Experimental data: patent US20170224780A1 (priority 2014, published 2017)

Experiments:
[1] = tested on: marmoset ovarian cortical tissues (grafts); test: Xenotransplantation of frozen-thawed marmoset ovarian cortical strips into castrated SCID mice with rAMH treatment (OTCP-TP model); format: in vivo
Text: Five healthy adult female marmoset monkeys (Callithrix jacchus) at the age range of 13 to 23 months were made available for ovaries excision. Fresh bovine ovaries were collected from lactating milking cows, ages 1.5-3 years (n=12). Ovarian human tissues were harvested from eight donors (age range 13-26 years).
Cortical tissue strips were obtained from marmoset (n=15), bovine (n=15) and human (n=46). The cortical tissue was obtained by removal of the underlying stromal tissue. Slow freezing cryopreservation was performed according to previously published protocols. Briefly, tissue fragments were equilibrated with 0.1M sucrose and 1.5M DMSO for 30 minutes following introduction into the cryopreservation device. A multi-gradient slow freezing protocol cooled the samples to −150° C. following by storage in liquid nitrogen (LN).
Prior to transplantation, tissues were thawed rapidly by equilibrating the samples in decreasing DMSO gradient solutions in 0.1M sucrose and cut into 2×3×2 mm pieces (Marmoset, n=29: n=15 for transplantation experiment and n=14 for transplantation+AMH experiment; Bovine, n=37; Human, n=46). Fresh thawed cortex from each experiment was embedded in […] and further studied.
Seven-weeks-old castrated male immunodeficient mice (n=60) were used as recipient animals. Mice were castrated at 4 weeks and maintained at 28° C. under controlled SPF conditions. Xenotransplantation experiments commenced at least 2-weeks post-orchidectomy.
Ovarian tissue transplantation surgical procedures were performed as described previously. Briefly, a longitudinal incision was made in the dorsum of the anesthetized recipient mouse, the skin was lifted and the ovarian cortical strips were inserted subcutaneously. Size of transplanted tissue from all species was 2×3×2 mm. Each graft was attached in place with a 6-0 non-absorbable prolene suture. Transplanted tissues were recovered after three (3) or seven (7) days.
In a separate experiment, frozen marmoset cortical tissues were thawed, 2×3×2 mm cortical strips were prepared (n=14) and transplanted into castrated SCID mice as described above. rAMH, diluted in PBS, was injected (10 μg in 200 μl, per mouse, i.p.) at the time of transplantation and once daily for 3 consecutive days at 10 μg per mouse, while control mice were injected with PBS. Daily injection protocol was determined according to preliminary experiments using labeled rAMH and rAMH dosage was initially determined according to previous studies.
As the first set of experiments indicated maximal follicle activation and PMF loss in all species (in the absence of AMH) at three days post transplantation, the animals were sacrificed three days post transplantation. The grafts were removed and processed for histological follicle counting analysis and immunohistochemistry.
Recovered grafts and control frozen thawed non transplanted samples were fixed in 4% paraformaldehyde, embedded in paraffin and serial 5 μm sections were prepared from the whole grafts for follicle counts and immunohistochemistry. Follicle classification as primordial or growing was performed on every sixth section of Hematoxylin and Eosin stained sections by two independent observers under a light-microscope (slides/graft: 8 for Marmoset, 9 for Bovine, 6 for Human). Only non-atretic follicles with clearly visible oocyte circled by granulosa-cell layers were referred to in results since no significant difference was found in the number of atretic follicles among the groups. […]

[2] = tested on: ovaries from 12-day-old neonatal mice; format: cell-based
[3] = tested on: ovaries from 12-day-old neonatal mice; test: In-vitro culture of whole ovaries incubated with cisplatin with or without AMH, follicle counting; format: cell-based; details: day 4 and day 7 in culture; results not shown
Procedure: Ovaries from 12-day-old neonatal mice were further incubated with a different chemotherapy agent-cisplatin, with or without AMH. Control ovaries were cultured with medium alone or with AMH. Ovaries were removed after day 4 and day 7 in culture and processed for histological analysis. The number of primordial and growing follicles was counted. Primordial follicle count in the presence of AMH and cisplatin is higher than in the presence of cisplatin alone (results not shown).

B1: rAMH: Anti-mullerian hormone, protein designated by NCBI Accession No. P03971; recombinant AMH (rAMH) (protein, UniProt P03971 452-560, looked up)
Muellerian-inhibiting factor: SAGATAADGPCALRELSVDLRAERSVLIPETYQANNCQGVCGWPQSDRNPRYGNHVVLLLKMQVRGAALARPPCCVPTAYAGKLLISLSEERISAHHVPNMVATECGCR
- collagen levels (Sirius red staining) ([1]; grafts three days post transplantation, both transplanted groups had a marked increase vs untransplanted control): no effect
- PMF (primordial follicle) count, mean follicle count per section±SE ([1]; marmoset grafts three days post transplantation, rAMH 10 μg per mouse i.p. at transplantation and once daily for 3 days, transplanted control 7.66±6.99, untransplanted control 148±37.06, p<0.001): 56.33±12.12
- additionally saved PMF compared to transplanted control ([1]; marmoset grafts three days post transplantation, rAMH 10 μg per mouse i.p. daily): 86.40%
- GF/PMF ratio (growing to primordial follicles) ([1]; transplanted + rAMH group compared to untransplanted control, ratio significantly increased in transplanted control, FIG. 4B): normalized
- Ki-67 expressing proliferating cells (immunofluorescence, Z-stack reconstruction) ([1]; transplanted grafts with vs without rAMH administration): Major reduction
- numbers of primordial follicles, PM together with AMH relative to PM alone [2]: significantly greater numbers
- primordial or growing follicle numbers, AMH alone vs regular media alone [2]: No difference
- ratio of growing to dormant follicles, PM+AMH vs PM alone [2]: significantly improved
- primordial follicle count, AMH and cisplatin vs cisplatin alone [3]: higher
